{"source": "patent US12697350B2", "about": "“Methods and compositions for treating a premature termination codon-mediated disorder” (Tevard Biosciences, Inc., priority 2019, dated 2026)", "key": {"[1]": {"system": "EGFP-Q69X-TAA reporter", "experiment": "100 nt 5′ leader sequence library with GlnTTA suppressor tRNA #163, EGFP-Q69X-TAA reporter, Flp-In-293 cells (FIGS. 30, 31, 32)", "type": "cell-based, human", "from_the_text": "FIG. 27 is a schematic representation of the constructs used to test the impact of a 5′ leader sequence on the read-through of a premature termination codon (PTC) by a suppressor tRNA. Constructs contain (i) a 100 bp 5′ leader sequence derived from genomic DNA located upstream of tRNA genes that are highly expressed in HEK293 cells, (ii) a single copy of either the ArgTCA suppressor tRNA #115 (SEQ ID NO: 18) or the GlnTTA suppressor tRNA #163 (SEQ ID NO: 45), and (iii) an RNA polymerase III termination signal (“Term”).\nFIG. 30 is a graph depicting the readthrough activity of the indicated GlnTTA suppressor tRNA expression constructs as measured by flow cytometry in Flp-In-293 cells at ~24 hours post transfection. […]\nFIG. 31 is a graph depicting the readthrough activity of the indicated GlnTTA suppressor tRNA expression constructs as measured by flow cytometry in Flp-In-293 cells at ~24 hours post transfection. […]\nThe leader sequences in combination with the ArgTCA suppressor tRNA #115 (SEQ ID NO: 18) or the GlnTTA suppressor tRNA #163 (SEQ ID NO: 45) were tested for PTC readthrough activity by flow cytometry in cell lines co-transfected with an EGFP-R96X-TGA reporter (SEQ ID NO: 31) for ArgTCA constructs or an EGFP-Q69X-TAA reporter (SEQ ID NO: 175) for GlnTTA constructs."}, "[2]": {"system": "EGFP-Q69X-TAG reporter", "experiment": "PTC readthrough of GlnCTA suppressor tRNA #196 versus nonsense suppression drugs, EGFP-Q69X-TAG reporter, Neuro-2a cells (FIG. 35)", "type": "cell-based, mouse", "details": "versus ataluren, gentamicin, G418 (FIG. 35)", "experimental": "FIG. 35 is a graph depicting the percentage of EGFP positive cells as measured by flow cytometry in three independent experiments at ~48 hours post transfection. Neuro-2a cells were transfected with an expression construct containing the EGFP-Q69X-TAG reporter (“EGFP-PTC”) (SEQ ID NO: 176) and either (i) including the GlncTA suppressor tRNA #196 (SEQ ID NO: 178) at the indicated copy number on the same construct, or (ii) treated with ataluren at the indicated concentration, (iii) treated with gentamicin at the indication concentration, or (iv) treated with G418 at the indicated concentration. […]\n(§1) The suppressor tRNAs were tested alongside nonsense suppression drugs translarna (ataluren), gentamicin, and G418 (geneticin). PTC readthrough activity was measured in Neuro-2a cells ~48 hours after transfection with an expression construct containing a CAG:NLS-EGFP (Q69X-TAA) reporter (as described in Example 4, SEQ ID NO: 175) and either (i) including a Gln suppressor tRNA (either #002, tRNA-Gln-TTG-1-1-TTA-SUP, SEQ ID NO: 36, or #196, tRNA-Gln-TTG-1-1-CTA-SUP, SEQ ID NO: 178, both as described in Example 4) at the indicated copy number on the same construct, or (ii) treated with ataluren, (iii) treated with gentamicin, or (iv) treated with G418. […] PTC readthrough activity was measured as the percentage of EGFP positive cells as measured by flow cytometry. […]"}, "[3]": {"system": "Neuro-2a cells", "type": "cell-based, mouse", "experimental": "FIG. 23 is a graph depicting cell viability from FIG. 22 as measured by flow cytometry at ~48 hours post transfection. Neuro-2a cells were transfected with an expression construct containing the EGFP-R96X-TGA reporter (“GFP-PTC”) and either (i) transfected with an expression construct including the ArgTCA suppressor tRNA #115 (SEQ ID NO: 18) at the indicated copy number on the same construct, or (ii) treated with ataluren at the indicated concentration, (iii) treated with gentamicin at the indication concentration, or (iv) treated with G418 at the indicated concentration. For all experimental conditions, cell culture medium was replaced with fresh medium ~6 hour after transfection and the indicated drugs at the indicated concentrations were added at this point. A reporter containing wildtype GFP without a PTC (“WT-GFP”) was used as a control. “Mock” indicates mock transfected cells. “4×TCG” indicates cells transfected with an expression construct that contains four copies of a wild-type Arg-tRNA with a TCG anticodon and the EGFP-R96X-TGA reporter. Cell viability was assessed by flow cytometry using 7-Amino Actinomycin D (7-AAD), a membrane impermeant dye that is generally excluded from viable cells.\nFIG. 34 is a graph depicting cell viability from FIG. 33 as measured by flow cytometry at ~48 hours post transfection. […] Cell viability was assessed by flow cytometry using 7-Amino Actinomycin D (7-AAD), a membrane impermeant dye that is generally excluded from viable cells.\nFIG. 36 is a graph depicting cell viability from FIG. 35 as measured by flow cytometry at ~48 hours post transfection. […] Cell viability was assessed by flow cytometry using 7-Amino Actinomycin D (7-AAD), a membrane impermeant dye that is generally excluded from viable cells. […]"}, "[4]": {"system": "EGFP-Q69X-TAA reporter", "experiment": "PTC readthrough of GlnTTA suppressor tRNA #002 versus nonsense suppression drugs, EGFP-Q69X-TAA reporter, Neuro-2a cells (FIG. 33)", "type": "cell-based, mouse", "details": "versus ataluren, gentamicin, G418 (FIG. 33)", "experimental": "FIG. 33 is a graph depicting the percentage of EGFP positive cells as measured by flow cytometry in three independent experiments at ~48 hours post transfection. Neuro-2a cells were transfected with an expression construct containing the EGFP-Q69X-TAA reporter (“EGFP-PTC”) (SEQ ID NO: 175) and either (i) including the GlnTTA suppressor tRNA #002 (SEQ ID NO: 36) at the indicated copy number on the same construct, or (ii) treated with ataluren at the indicated concentration, (iii) treated with gentamicin at the indication concentration, or (iv) treated with G418 at the indicated concentration. […]\nas §1"}}}
{"molecule": "tRNA-Gln-TTG-3-1-TTA-SUP (nucleic acid, expressed or natural sequence) GGCCCCATGGTGTAATGGTTAGCACTCTGGACTTTAAATCCAGCGATCCGAGTTCAAATCTCGGTGGGACCT", "values": [{"measurement": "readthrough activity when combined with the identified leader sequences", "setting": "[1]", "value": "showed high readthrough activity"}]}
{"molecule": "tRNA-Gln-CTG-1-1-CTA-SUP (nucleic acid, chemistry not fully specified) GGTCCCATGGTGTAATGGTTAGCACTCTGGACTCTAAATCCAGCGATCCGAGTTCAAATCTCGGTGGGACCT", "values": [{"measurement": "PTC readthrough compared with nonsense suppression drugs", "setting": "[2]", "value": "greater readthrough than any of the nonsense suppression drugs"}, {"measurement": "cell viability", "setting": "[3]", "value": "not accompanied by a decrease in cell viability"}]}
{"molecule": "tRNA-Gln-TTG-1-1-TTA-SUP (nucleic acid, chemistry not fully specified) GGTCCCATGGTGTAATGGTTAGCACTCTGGACTTTAAATCCAGCGATCCGAGTTCAAATCTCGGTGGGACCT", "values": [{"measurement": "PTC readthrough compared with nonsense suppression drugs", "setting": "[4]", "value": "greater readthrough than any of the nonsense suppression drugs"}, {"measurement": "cell viability", "setting": "[3]", "value": "not accompanied by a decrease in cell viability"}]}
